Assays:
Test in all cases: fluorescence polarisation
[1] = biological target: TAMRA-labeled CoV-2 nsp1 C-K R124A/K125A (SARS-CoV-2) (UniProt P0DTD1)
[2] = biological target: TAMRA-labeled CoV-2 nsp1 C-K R99A (SARS-CoV-2) (UniProt P0DTD1)
[3] = biological target: TAMRA-labeled CoV-2 nsp1 C-K, wild type (SARS-CoV-2) (UniProt P0DTD1)

purified ribosomes (crude 80S from HeLa cell lysate) (from UniProt P15880;P23396;P62847;P63244) (complex)
fold increase in Kd against WT nsp1 [1]: 2 fold
fold increase in Kd against WT nsp1 [2]: 1.6 fold
Kd [3]: 539 nM
